Experimental findings from patent publication US20240092909A1 (IBIO, published 2024) are described below.

In assay [1] the target is T1, Programmed cell death protein 1 (PD-1), human (human, UniProt Q15116 25-167, limits assumed).
T1 construct: also called full-length PD-1
The assay can be described thus: SPR on PD-1, sensorgrams at five concentrations with fit.

In assay [2] the target is T1, Programmed cell death protein 1 (PD-1), …. As to the kind of experiment: cell-based or functional assay.
Assay [3] shares this target. The assay can be described thus: SPR affinity measurement, response in nm, four traces.
Assay [4] shares this target. The assay can be described thus: SPR avidity, column 'Avidity (nM)' of the drawn table.
For assay [5] the target is unchanged. The assay can be described thus: SPR affinity, column 'Affinity (nM)' of the drawn table.
The target is the same in assay [6]. As to the kind of experiment: SPR avidity measurement (mimic cell surface PD-1 clusters), response in nm, three traces.
Assay [7] has the same target. The assay can be described thus: SPR, PD-1 avidity (FIG. 2C); SPR avidity format, FIG. 2C.
The target is the same in assay [8]. The assay can be described thus: SPR, PD-1 binding (FIG. 2B); SPR affinity format, FIG. 2B. (In general: In SPR one partner is held on a chip, and binding of the other changes the refractive index at the surface.)
For assay [9] the target is unchanged. The assay can be described thus: SPR on PD-1, sensorgrams at three concentrations with fit.

T1 sequence (Q15116 25-167 limits assumed): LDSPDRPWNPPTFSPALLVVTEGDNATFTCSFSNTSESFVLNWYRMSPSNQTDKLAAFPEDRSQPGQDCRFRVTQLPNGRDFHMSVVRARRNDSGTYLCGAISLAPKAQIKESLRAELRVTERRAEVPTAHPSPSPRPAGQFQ

B1: E2-B5-7_201 (antibody, V domains shown)
VH: EVQLVQSGAEVKKPGATVKISCKASGYSLSDHYMHWVQQAPGKGLEWMGRIDPHSGATKYDPKFQGRVTITADTSTDTAYMELSSLRSEDTAVYYCARSGPVYHYGSSYVMDYWGQGTTVTVSS
VL: DIVMTQSPDSLAVSLGERATINCKSGQSVFYSSNNKNYLAWYQQKPGQPPKLLIYWASTRESGVPDRFSGSGSGTDFTLTISSLQAEDVAVYYCQQYLYSWTFGQGTKLEIK
With B1, in assay [1], the Kd stood at 1.2 nM.

B2: D4-A7-7_201 (antibody, V domains shown)
VH: EVQLVQSGAEVKKPGATVKISCKASGYILTDHYMHWVQQAPGKGLEWMGRIDPHSGGIKYDPKFQGRVTITADTSTDTAYMELSSLRSEDTAVYYCARSGPVYHYGSSYVMDYWGQGTTVTVSS
VL: DIVMTQSPDSLAVSLGERATINCKSGQSVFYSSNNKNYLAWYQQKPGQPPKLLIYWASTRESGVPDRFSGSGSGTDFTLTISSLQAEDVAVYYCQQYLYSWTFGQGTKLEIK
notes: also called clone D4-A7-7_201
B2 showed a Kd in assay [1] of 1.1 nM.

B3: E2-B5-7_211 (antibody, V domains shown)
VH: EVQLVQSGAEVKKPGATVKISCKASGYSLSDHYMHWVQQAPGKGLEWMGRIDPHSGATKYDPKFQGRVTITADTSTDTAYMELSSLRSEDTAVYYCARSGPVYHYGSSYVMDYWGQGTTVTVSS
VL: DIVMTQSPDSLAVSLGERATINCKSGQSVFYSSNNKNYLAWYQQKPGQPPKLLIYWADTRESGVPDRFSGSGSGTDFTLTISSLQAEDVAVYYCQQYLYSWTFGQGTKLEIK
B3: the Kd in [1] worked out at 0.695 nM.

B4: E2-B5-6_201 (antibody, V domains shown)
VH: EVQLVQSGAEVKKPGATVKISCKASGYSLSDHYMHWVQQAPGKGLEWMGRIDPHSGATKYDPKFQGRVTITADTSTDTAYMELSSLRSEDTAVYYCARSGPVHYYGSSYVMDYWGQGTTVTVSS
VL: DIVMTQSPDSLAVSLGERATINCKSGQSVFYSSNNKNYLAWYQQKPGQPPKLLIYWASTRESGVPDRFSGSGSGTDFTLTISSLQAEDVAVYYCQQYLYSWTFGQGTKLEIK
The molecule B4 had a Kd in assay [1] of 0.71 nM.

B5: 1-C09-3 (antibody, V domains shown)
VH: QVQLQQPGAELVRPGTSVKLSCKASGYTFTSYWMHWVKERPGQGLEWIGVIDPSDSYTNYNQKFKDKATLTVDTSSSTAYMQLSSLTSEDSAVYYCARSPFDYWGQGTTLTVSS
VL: DIQMTQSQKFMSTSVGDRVSVTCKASQNVGTNVAWYQQKPGQSPKALIYSASYRYSGVPDRFIGSGSGTDFTLTIRNVQSEDLAEYFCQQHNSYPFTFGGGTKLEIK
notes: From the in vitro scFv library of immunised mice
For the molecule B5, the “PD-1 agonism EC50, PathHunter Checkpoint Signaling Assay” value (from here on “PD-1 agonism EC50”) in assay [2] stood at 1.1 nM. In addition, the Kd in [3] came to 84 nM; in [4] it was 0.77 nM; in assay [5], 84 nM; in [6], 0.77 nM.

B6: 1-F09-1 (antibody, V domains shown)
VH: QVQLQQPGAEVVMPGASVKLSCKASGYTFTSYWMHWVKQRPGQGLEWIGVIDPSDSYTQYNQKFKGKATLTVDTSSSTAYMQLSSLTSEDSAVYYCARSPFDYWGQGTTLTVSS
VL: DIQMNQSHKFMSTSVGDRVSITCKASQDVSTAVAWYQQKPGQSPKALIYSASNRYSGVPDRFIGSGSGTDFTLTIRNVQSEDLAEYFCQQHNSYPFTFGGGTKLEMK
notes: as for B5
In the case of B6, the “PD-1 agonism EC50” value in assay [2] stood at 1.1 nM. Also, the Kd in [3] came to 13 nM; in assay [4], 0.46 nM; in assay [5], 13 nM; in assay [6] it was 0.46 nM.

B7: 1-F12-1 (antibody, V domains shown)
VH: EVQLQQPGAELVRPGTSVKLSCKASGYTFTSYWMHWVKQRPGQGLEWIGVIDPSDSYTQYNQKFKGKATLTVDTSSSTAYMQLSSLTSEDSAVYYCARSPFDYWGQGTTVTVSS
VL: DIVMTQSHKFMSTSVGDRVSITCKASQDVSTAVAWYQQKPGQSPKALIYSASYRYSGVPDRFTGSGSGTDFTLTISNVQAEDLAVYYCHQHNTYPFTFGGGTKLEIK
notes: as for B5
For the molecule B7, the “PD-1 agonism EC50” value in assay [2] was found to be 1.6 nM. In addition, the Kd in assay [3] worked out at 21 nM; in assay [4] it was 0.98 nM; in [5] it was 21 nM; in assay [6], 0.98 nM.

B8: 1-C09-1 (antibody, V domains shown)
VH: QVQLQQPGTELVRPGTSVKMSCKASGYTFTSYWMHWVKQRPGQGLEWIGVIDPSDSYTQYNQKFKGKATLTVDTSSSTAYMQLSSLTSEDSAVYYCARSPFDYWGQGTTLTVSS
VL: DIVMTQSQKFMSTSVGDRVSVTCKASQNVGTNVAWYQQKPGQSPKALIYSASYRYSGIPDRFTGSGSGTDFTLTISNVQSEDLADFFCQQYNSYPFTFGGGTKLEIK
notes: as for B5
With B8, the “PD-1 agonism EC50” value in assay [2] was determined as 1.4 nM. The Kd in assay [3] is 150 nM; in assay [4], 3.7 nM; in assay [5], 150 nM; in [6], 3.7 nM.

B9: 2-D11-1 (antibody, V domains shown)
VH: EVQLQQPGAELVRPGTSVKLACKASGYTFNTYWMHWVNQRPGQGLEWIGVIDPSDSYTQYNQKFKGKATLTVDTSSSTAYMQLSSLTSEDSAVYYCARSPFDYWGQGTTLTVSS
VL: DVQMTQSQKFMSTSVGDRVSVTCKASQNVGTNVAWYQQKPGQSPKALIYSASYRYSGVPDRFIGSGSGTDFTLTISNVQSEDLAEYFCQQHNSYPFTFGGGTKLEIK
notes: as for B5
In the case of B9, the “PD-1 agonism EC50” value in assay [2] amounted to 1.2 nM. Further, the Kd worked out at 15 nM in assay [3], 0.96 nM in assay [4], 15 nM in [5] and 0.96 nM in [6].

B10: 1-H01-1 (antibody, V domains shown)
VH: QVQLQQPGAELVKPGASVKMSCKASGYTFTSYWMHWVKQRPGQGLEWIGVIDPSNSYTIYNQKFKGKATLTVDTSSSTAYMQLSSLTSEDSAVYYCARSPFDYWGQGTTLTVSS
VL: DVVMTQSQKFMSTSVGDRVSVTCKASQNVGTNVAWYQQKPGQSPKALIYSASYRYSGVPDRFTGSGSGTDFTLTIRNVQSEDLAEYFCQQHNSYPFTFGGGTKLEIK
notes: From the in vitro scFv library of immunised mice; also called clone 1-H01-1
Regarding B10, the “PD-1 agonism EC50” value in [2] came out at 0.9 nM. Also, the Kd was determined as 78 nM in assay [3], 0.44 nM in [4], 78 nM in [5] and 0.44 nM in assay [6].

B11: 27A5 (antibody, V domains shown)
VH: QVTLKESGPGILQPSQTLSLTCSFSGFSLSTFGMGVGWIRQPSGKGLEWLAHIWWDADKYSTPALKSRLTISKDTSKNQVFLKIANVDTADTATYYCARIGRNYYFDYWGQGTTLTVSS
VL: DIVMTQSPSSLAVSVGEKVTLTCKSSQTLLDSTNQKNYLAWYQQIPGQSPKLLIYWASTRESGVPDRFTGSGSGTDFTLTISSVKAEDLTVYYCQQYYTYPLTFGAGTKLELK
notes: Antibody from a monoclonal hybridoma of immunised BALB/c mice
As for B11, the figures for the Kd in assay [7] and in assay [8] were 0.005 nM and 55 nM, respectively.

B12: 43 (antibody, V domains shown)
VH: EVQLLESGGGLVQPGGSLRLSCAASGFTFSIHPMTWVRQAPGKGLEWVSLISTGGGSTYYADSVKGRFTISRDNSKNTLYLQMNSLRAEDTAVYYCASASVLGSGGYWSPGMDYWGQGTLVTVSS
VL: DIQMTQSPSSLSASVGDRVTITCRASQSIDRFLNWYQQKPGKAPKLLIYGASNLPSGVPSRFSGSGSGTDFTLTISSLQPEDFATYYCQQSFSIPWTFGGGTKVEIK
notes: From phage panning of a naive antibody library; also called antibody 43; clone 43
Turning to B12, the Kd in [9] stood at 6.3 nM.

B13: 7 (antibody, V domains shown)
VH: EVQLLESGGGLVQPGGSLRLSCAASGFPFGNYLMNWVRQAPGKGLEWVSVISGGGVSTYYADSVKGRFTISRDNSKNTLYLQMNSLRAEDTAVYYCARGPSSWPAFDVWGQGTLVTVSS
VL: DIQMTQSPSSLSASVGDRVTITCRASETISNFLNWYQQKPGKAPKLLIYTTSSLQRGVPSRFSGSGSGTDFTLTISSLQPEDFATYYCQQSYSVPWTFGGGTKVEIK
notes: From phage panning of a naive antibody library; also called antibody 7; clone 7
On to B13, for which, in assay [9], the Kd was 16 nM.
